Where no end group is shown, it is not given here.
How the values were obtained:
[1] = molecular target: T1, integrin α9β1 (Homo sapiens, UniProt P05556+Q13797); assay: Direct integrin binding assay with recombinant integrin α9β1; settings: for binding of integrin α9β1 to smaller segments of D2628-S2664: 1 mM MnCl2, FIG. 13; for binding of recombinant integrin α9β1 to coated protein: 1 mM MnCl2, FIG. 7
T1 construct: A cDNA encoding the extracellular region of human integrin α9; An expression vector for the extracellular region of integrin β1; ACID coiled-coil (Velcro) peptide; FLAG; BASE coiled-coil (Velcro) peptide; made in house; host or cells: FreeStyle 293 Expression System (293-F cells)
T1 sequence (Q13797 30-981 limits assumed): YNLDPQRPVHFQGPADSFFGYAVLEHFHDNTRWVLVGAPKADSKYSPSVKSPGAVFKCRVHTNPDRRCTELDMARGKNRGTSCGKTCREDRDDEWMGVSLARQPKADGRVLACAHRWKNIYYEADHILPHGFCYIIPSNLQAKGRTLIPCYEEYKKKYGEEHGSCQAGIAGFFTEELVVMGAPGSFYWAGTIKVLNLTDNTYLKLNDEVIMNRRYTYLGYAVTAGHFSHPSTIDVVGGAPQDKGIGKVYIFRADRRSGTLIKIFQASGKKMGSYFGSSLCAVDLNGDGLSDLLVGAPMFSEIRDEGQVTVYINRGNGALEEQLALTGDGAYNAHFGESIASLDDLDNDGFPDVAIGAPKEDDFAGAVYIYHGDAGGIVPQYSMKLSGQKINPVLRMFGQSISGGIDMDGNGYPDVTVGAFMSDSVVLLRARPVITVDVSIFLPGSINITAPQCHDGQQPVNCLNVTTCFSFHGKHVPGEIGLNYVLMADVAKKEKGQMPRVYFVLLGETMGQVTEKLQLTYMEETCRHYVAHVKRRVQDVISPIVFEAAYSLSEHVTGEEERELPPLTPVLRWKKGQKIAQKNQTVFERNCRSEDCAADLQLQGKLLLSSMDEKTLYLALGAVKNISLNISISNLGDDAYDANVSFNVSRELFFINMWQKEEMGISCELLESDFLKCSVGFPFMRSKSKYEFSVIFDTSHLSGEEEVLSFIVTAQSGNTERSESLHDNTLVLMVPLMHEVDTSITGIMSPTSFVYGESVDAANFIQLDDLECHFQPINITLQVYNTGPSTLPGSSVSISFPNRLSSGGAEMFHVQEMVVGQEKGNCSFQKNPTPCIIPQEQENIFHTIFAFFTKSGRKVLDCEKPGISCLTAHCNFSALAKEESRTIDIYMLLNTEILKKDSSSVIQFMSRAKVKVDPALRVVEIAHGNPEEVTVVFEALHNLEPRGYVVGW
T1 sequence (P05556 21-728 limits assumed): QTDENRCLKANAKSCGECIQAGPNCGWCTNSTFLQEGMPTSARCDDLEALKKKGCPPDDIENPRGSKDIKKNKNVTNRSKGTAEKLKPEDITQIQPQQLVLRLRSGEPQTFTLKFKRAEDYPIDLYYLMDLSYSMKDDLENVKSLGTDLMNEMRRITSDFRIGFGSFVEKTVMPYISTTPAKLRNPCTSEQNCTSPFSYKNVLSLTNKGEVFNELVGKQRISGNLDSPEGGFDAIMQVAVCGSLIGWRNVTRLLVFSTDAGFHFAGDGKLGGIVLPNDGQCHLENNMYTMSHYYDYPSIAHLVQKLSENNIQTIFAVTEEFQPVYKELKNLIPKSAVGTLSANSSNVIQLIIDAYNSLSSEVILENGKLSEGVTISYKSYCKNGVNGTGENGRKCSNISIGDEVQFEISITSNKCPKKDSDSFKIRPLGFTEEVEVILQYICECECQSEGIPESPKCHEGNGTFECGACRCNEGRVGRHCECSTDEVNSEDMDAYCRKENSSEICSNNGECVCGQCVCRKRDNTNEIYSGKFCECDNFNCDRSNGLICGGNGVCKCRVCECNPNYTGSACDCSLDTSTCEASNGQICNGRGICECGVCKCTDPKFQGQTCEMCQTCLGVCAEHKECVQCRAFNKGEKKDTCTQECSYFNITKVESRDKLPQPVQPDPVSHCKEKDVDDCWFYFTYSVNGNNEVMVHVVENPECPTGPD
Source text: A cDNA encoding the extracellular region of human integrin α9 was amplified by RT-PCR from total RNA extracted from RD cells and cloned into pBluescript KS(+). After verification of the nucleotide sequence, an error-free cDNA fragment was inserted into pcDNA-ACID-FLAG (Nishiuchi, R., Takagi, J., Hayashi, M., Ido, H., Yagi, Y., Sanzen, N., Tsuji, T., Yamada, M., and Sekiguchi, K. (2006) Matrix Biol. 25, 189-197). An expression vector for the extracellular region of integrin β1 was provided by Dr. Junichi Takagi (Takagi, J., Erickson, H. P., and Springer, T. A. (2001) Nat. Struct. Biol. 8, 412-416). The recombinant integrins were produced using the Freestyle™ 293 Expression System (Invitrogen) and purified as described in the above-mentioned publication Matrix Biol. 25, 189-197, (2006).
An integrin binding assay was performed as described in the above-mentioned publication Matrix Biol. 25, […], (2006). In some experiments, integrins were preincubated with synthetic peptides at various concentrations to evaluate the inhibitory activities of the synthetic peptides. The apparent dissociation constants were determined as described in Nishiuchi, R., Murayama, O., Fujiwara, H., Gu, J., Kawakami. T., Aimoto, S., Wada, Y., and Sekiguchi, K. (2003) J. Biochem, 134, 497-504.
To corroborate the role of integrin α9β1 as an adhesion receptor for polydom, a direct integrin binding assay was performed, using recombinant integrin α9β1. Plates were coated with full-length polydom, pol-N, pol-C, plasma fibronectin (pFN) or cellular fibronectin (cFN), and recombinant integrin α9β1 was added and allowed to bind thereto in the presence of 1 mM MnCl2 or 10 mM EDTA. BSA was used as a negative control. The bound integrin was quantified using a biotinylated anti-Velcro antibody and HRP-conjugated streptavidin.
Integrin α9β1 is known to bind to the third fibronectin type III domain of tenascin-C (TNfn3) and the osteopontin N-terminal half (OPN-Nhalf). These integrin α9β1 ligands were recombinantly expressed as GST fusion proteins and then purified. In the GST fusion proteins, the RGD cell-adhesive motifs were replaced with RAA to nullify their abilities to interact with RGD-binding integrins, such as those containing the αv subunit, Microtiter plates were coated with pol-C (10 nM), GST-TNfn3-RAA (100 nM) or GST-OPN-Nhalf-RAA (100 nM), and integrin α9β1 was added and allowed to bind thereto in the presence of 1 mM MnCl2.
To locate the integrin α9β1-binding site within polydom, a series of five N-terminal deletion mutants of polydom (pol-C, ΔEGF6, ΔPTX, ΔCCP20 and ΔCCP21; see FIG. 9) were constructed. Their binding activities for integrin α9β1 were evaluated in the presence of 1 mM MnCl2 or 10 mM EDTA using microtiter plates coated with these recombinant proteins (10 nM).
Among the 34 CCP domains within polydom, CCP21 is unique because it contains about 40 extra amino acids as compared with the other CCP domains. An assay to examine whether this extra region (hereinafter referred to as “extra segment”) within CCP21 is involved in binding to integrin α9β1 was performed, Microtiter plates were coated with a GST-CCP21 fusion protein, a D2628-S2664 deletion mutant of the GST-CCP21 fusion protein (CCP21ΔD2628-S2664), D2628-S2664 alone (see FIG. 11), pol-C or GST alone, and integrin α9β1 was added and allowed to bind thereto in the presence of 1 mM MnCl2 or 10 mM EDTA.
To further narrow down the region responsible for binding to integrin α9β1, the extra 37-amino acid segment of CCP21 was divided into smaller segments, of which GST fusion proteins were produced. Microtiter plates were coated with eight kinds of segments including CCP21, pol-C and GST alone, and integrin α9β1 was added and allowed to bind thereto in the presence of 1 mM MnCl2 or 10 mM EDTA.
To identify the residues involved in binding to Integrin α9β1, alanine scanning mutants and N-terminal or C-terminal deletion mutants of D2634-L2645 were produced as GST fusion proteins. […]

[2] = tested on: hematopoietic stem cells; assay: Proliferation of hematopoietic stem cells on coated plates; format: cell-based, mouse; settings: peptide 50 μM for 2 hours, then polydom-coated plate, FIG. 20
Experimental: Bone marrow cells were flushed out from the femurs and tibias of three mice of 6 to 7 weeks of age (C57BL/6J) and dissociated with a 22G needle. The cells were reacted with a biotin-labeled anti-lineage antibody for 30 minutes and subsequently with an anti-blotin antibody-conjugated magnetic beads, and lineage-positive cells were removed by automated magnetic cell sorter autoMACS (Miltenyi Biotec). After staining with PE-CD3, PE-Mac1, PE-Gr1, PE-Ter119, PE-B220, FTTC-Sca1 and APC-c-Kit, a lineage(−) Sca1(+) c-Kit (high) cell fraction was sorted out using FACSAria and used for the experiments described below.
The above-prepared cells were plated on a 48-well plate coated with a recombinant polydom protein or fibronectin. The same type of plate without coating was used as a control. The medium used was RPMI containing 10% fetal calf serum, thrombopoietin (30 ng/ml) and flt3 ligand (100 ng/ml). For the examination of cell proliferation, the cells were plated in duplicate wells for each coating at 1000 cells/well and started to be cultured, and the cell number was counted at the start of culture, and on day 2 and day 3. The remaining cells were divided into three aliquots, plated in wells for each coating, and subjected to FACS analysis on day 3 after the start of culture. For the FACS analysis, staining with an antibody cocktail containing PE-CD3, PE-Mac1, PE-Gr1, PE-Ter119, PE-B220, FITC-Sca1 and APC-c-Kit was performed and FACSCont was used.
The above-prepared cells were divided into three groups and plated on 48-well plates at 5000 cells/well. The medium used was RPMI containing 10% fetal calf serum, thrombopoietin (30 ng/ml) and flt3 ligand (100 ng/ml). For an EDDMMEVPY peptide treatment group, 2 μl of the peptide was added to each well at the final concentration of 50 μM, and for the other two groups, 2 μl of PBS was added to each well. Then, the culture was performed at […] for 2 hours. Subsequently, the cells were transferred to 48-well plates coated with a recombinant polydom protein or fibronectin. The cells cultured in the presence of the peptide were transferred to the recombinant polydom protein-coated plate, and the cells in one of the other two groups were transferred to the recombinant polydom protein-coated plate, and the cells in the remaining group were transferred to the fibronectin-coated plate. The culture was continued for 3 days and the cell numbers were counted on day 2, day 3 and […].

[3] = tested on: RD cells; assay: Cell adhesion assay on coated plates (RD cells); format: cell-based, human; settings: for promotion of RD cell adhesion: coated 96-well plates, 37° C. for 30 minutes
Experimental: A cell adhesion assay was performed as described in Sato, Y. , Uemura, T., Morimitsu, K., Sato-Nishiuchi, R., Manabe, R., Takagi, J., Yamada, M., and Sekiguchi, K. (2009) J. Biol. Chem. 284, 14524-14536. For an assay involving blocking antibodies, RD cells (human rhabdomyosarcoma cells) were preincubated with monoclonal antibodies of interest at room temperature for 15 minutes and plated on 96-well plates coated with recombinant polydom proteins or fibronectin. The cells were incubated for 30 minutes, washed, fixed with 3.7% formaldehyde, and stained with 0.5% toluidine blue.
The cells were plated on 96-well plates coated with serial diluted concentrations of full-length polydom, pol-N, pol-C or plasma fibronectin (FN) and incubated at 37° C. for 30 minutes. After washing out unattached cells, attached cells were fixed and stained with toluidine blue. The attached cells were counted under a microscope. The assay was performed in triplicate.

[4] = molecular target: recombinant integrin α9β1 (human, UniProt Q13797 30-981; P05556 21-728); assay: inhibition of integrin α9β1 (10 nM) binding to coated pol-C (10 nM) by synthetic peptide, 1 mM MnCl2, 10% DMSO
recombinant integrin α9β1, sequence (Q13797 30-981, chain 1 of 2): as the sequence (Q13797 30-981 limits assumed) above
recombinant integrin α9β1, sequence (P05556 21-728, chain 2 of 2): as the sequence (P05556 21-728 limits assumed) above
Experimental: To further corroborate the role of […] as the integrin α9β1 recognition sequence, an integrin α9β1-pol-C binding inhibition assay was performed using synthetic peptides consisting of the […] sequence or a part of the sequence, Integrin α9β1 (10 nM) was incubated on microtiter plates coated with pol-C (10 nM) in the presence of 1 mM MnCl₂ and various concentrations of the synthetic peptides. To prevent precipitation of the peptides, the assay was performed in the presence of 10% DMSO. Based on the amount of integrin α9β1 bound to pol-C set as 100%, the relative binding amount was calculated.

D2628-L2645: segment in the N-terminal region of D2628-S2664, GST fusion protein (DGQGHFDQEDDMMEVPYL; also: GST fusion protein)
binding of integrin α9β1 to smaller segments of D2628-S2664 ([1]; GST fusion proteins): bound

D2628-S2664: extra 37-amino acid segment of CCP21, GST fusion (DGQGHFDQEDDMMEVPYLAHPQHLEATAKALENTKES; also: GST fusion)
binding to integrin α9β1 (extra segment of CCP21) ([1]; GST fusion proteins, 1 mM MnCl2, FIG. 12): retained the binding activity

D2634-L2645: 12-amino acid segment in the extra segment of CCP21, GST fusion protein (DQEDDMMEVPYL; also: GST fusion protein)
binding of integrin α9β1 to smaller segments of D2628-S2664 ([1]; GST fusion proteins): bound

E2641A: alanine substitution of Glu2641 in D2634-L2645, GST fusion protein (DQEDDMMAVPYL; also: GST fusion protein)
integrin binding activity of alanine scanning mutants of D2634-L2645 ([1]; GST fusion proteins, FIG. 14): almost completely abrogated the integrin binding activity

EDDMMEVPY [EDDMMEVPY]
proliferation of hematopoietic stem cells on polydom-coated plate after peptide treatment ([2]; listed as EDDMMEVPY peptide): proliferate albeit more slowly than the cells on the fibronectin-coated plate | proliferation of hematopoietic stem cells on polydom-coated plate after peptide treatment ([2]; listed as peptide consisting of the amino acid sequence represented by SEQ ID NO: 1): canceled

pol-C: C-terminal fragment of polydom, residues 1192 to 3567 of SEQ ID NO: 2, C-terminal His tag
binding of recombinant integrin α9β1 to coated protein [1]: bound | Kd ([1]; pol-C coated at 10 nM, 1 mM MnCl2, three independent determinations, read-out: dissociation constant between integrin α9β1 and ligand): 32.4 ± 2.7 nM | cell adhesion potency compared with full-length polydom ([3]; FIG. 4): almost equivalent to that of full-length polydom | promotion of RD cell adhesion ([3]; FIG. 4): capable of promoting cell adhesion | morphology of attached RD cells ([3]; microscopic observation, FIG. 5): exhibited spread morphology

B1: EDDMMEVPY peptide (synthetic) (peptide)
peptide: EDDMMEVPY
notes: Corresponds to Glu2636-Tyr2644 of mouse SVEP1
IC50 [4]: 0.18 µM

AEIDGIEL [AEIDGIEL peptide (integrin α9β1 recognition sequence in tenascin-C, synthetic)]
IC50 [4]: 7.8 µM

B2: pol-N: N-terminal fragment of polydom, residues 18 to 789 of SEQ ID NO: 2, C-terminal His tag (protein, listed as Mus musculus)
chain: WTNFQPVAPSLNFSFRLFPEASPGALGRLAVPPASSEEEAAGSKVERLGRAFRSRVRRLRELSGSLELVFLVDESSSVGQTNFLNELKFVRKLLSDFPVVSTATRVAIVTFSSKNNVVARVDYISTSRAHQHKCALLSREIPAITYRGGGTYTKGAFQQAAQILRHSRENSTKVIFLITDGYSNGGDPRPIAASLRDFGVEIFTFGIWQGNIRELNDMASTPKEEHCYLLHSFEEFEALARRALHEDLPSGSFIQEDMARCSYLCEAGKDCCDRMASCKCGTHTGQFECICEKGYYGKGLQHECTACPSGTYKPEASPGGISTCIPCPDVSHTSPPGSTSPEDCVCREGYQRSGQTCEVVHCPALKPPENGFFIQNTCKNHFNAACGVRCRPGFDLVGSSIHLCQPNGLWSGTESFCRVRTCPHLRQPKHGHISCSTAEMSYNTLCLVTCNEGYRLEGSTRLTCQGNAQWDGPEPRCVERHCATFQKPKGVIISPPSCGKQPARPGMTCQLSCRQGYILSGVREVRCATSGKWSAKVQTAVCKDVEAPQISCPNDIEAKTGEQQDSANVTWQVPTAKDNSGEKVSVHVHPAFTPPYLFPIGDVAITYTATDSSGNQASCTFYIKVIDVEPPVIDWCRSPPPIQVVEKEHPASWDEPQFSDNSGAELVITSSHTQGDMFPHGETVVWYTATDPSGNNRTCDIHIVIKGSPCEVPFTPVNGDFICAQDSAGVNCSLSCKEGYDFTEGSTEKYYCAFEDGIWRPPYSTEWPDCAI
modifications: C-terminal His tag
binding of recombinant integrin α9β1 to coated protein [1]: not | promotion of RD cell adhesion ([3]; FIG. 4): only pol-C was capable

Source: patent US20150086557A1, “NOVEL INTEGRIN alpha9 beta1 LIGAND AND USES THEREOF” (OSAKA UNIVERSITY, priority 2012, published 2015)
